One data set concerns RIG-I. Briefly: EMSA. The conditions noted are these: 60 nM protein, 20 nM RNA, monovalent streptavidin; mainly monomer; m7G cap and 2'-O-methyl on first nucleotide (Cap1); biotin at distal end; Buffer A: 50 mM MOPS pH 7.4, 5 mM MgCl2, 5 mM DTT, 0.05 mM BSA, 0.01% Tween20; 0-100 mM NaCl (or KCl), with or without ATP; EMSA at 4 C, stopped-flow at 25 C ….
The test system of data set [1] is LGP2 (insect-cell expressed) (Homo sapiens). Briefly: fluorescence polarization. The following applies: Buffer A: 50 mM MOPS pH 7.4, 5 mM MgCl2, 5 mM DTT, 0.05 mM BSA, 0.01% Tween20, 0-100 mM NaCl (or KCl), with or without ATP, EMSA at 4 C, stopped-flow at 25 C …. On the technique in general: Fluorescence polarisation rises when a labelled molecule tumbles more slowly, as on binding a larger partner.

In general, Kd refers to a measure of binding affinity in units of concentration.

In turn, Cap1 ds27 RNA-biotin registered a binding signal in the data set on RIG-I of 50 % RNA bound.

ds16 DNA: in data set [1] (0 mM NaCl, ATP had little effect on Kd), the Kd came out at 200 nM. On to 3'-overhang HP RNA, for which, in data set [1] (100 mM KCl), the binding signal (fold Kd vs 5'OH blunt HP) was 10. Turning to 5'ppp blunt HP RNA, in data set [1] (5'ppp), the Kd is 10 nM. In other words, the double-digit nanomolar range. Substance stem ds26 RNA showed a Kd in data set [1] (0 mM NaCl, ATP without effect, 17 bp dsRNA flanked by 4 bp dsDNA ends) of 80 nM. In other words, the double-digit nanomolar range. In data set [1] (5'OH), 5'OH blunt HP RNA gave a Kd of 10 nM.

(Values after article PMC10783506.)
